Assay results: patent publication US20180258187A1 (Memorial Sloan Kettering, published 2018)

Target: EBV-LMP2 peptide presented by HLA-A*02:02 on artificial antigen presenting cells (human; Epstein-Barr virus)
Assay: cell-based or functional assay

B1: LMP2-38×CD3 bispecific antibody (bispecific antibody)
chain: QSALTQPASVSGSPGQSITISCTGTSSDVGSYNDVSWYQQHPGKAPKLMIYDVSNRPSGVSNRFSGSKSGNTASLTISGLQTEDEADYYCNSYTSSNTYVFGTGTKVTVLGQVQLVQSGAEVKKPGASVQVSCRASGYTITSYYMHWVRQAPGQGLEWMGVINPNAGSTRYAQKFQGRVTMSTDTSTSTVYMALSSLRSDDTAVYYCARGMYRMYDWGQGTLVTVSSDVQLVQSGAEVKKPGASVKVSCKASGYTFTRYTMHWVRQAPGQGLEWIGYINPSRGYTNYADSVKGRFTITTDKSTSTAYMELSSLRSEDTATYYCARYYDDHYCLDYWGQGTTVTVSSGEGTSTGSGGSGGSGGADDIVLTQSPATLSLSPGERATLSCRASQSVSYMNWYQQKPGKAPKRWIYDTSKVASGVPARFSGSGSGTDYSLTINSLEAEDAATYYCQQWSSNPLTFGGGTKVEIKHHHHHH
EC50 (read off the curve), T cell cytotoxicity on peptide-pulsed aAPC expressing HLA-A*02:02: ~0.02 µg/mL
